From patent US20210101964A1 (UCB, published 2021)
Values belong to the binder of their own block, whether it stands above or below them. Ends that are not written are not given here.

B1: rat-mouse chimeric recombinant antibody 5811 mFab (Fab, V domains shown)
VH: EMQLVESGGGLVQPKESLKISCAASGFTFNNAAMYWVRQAPGKGLEWVARIRTKPNNYATSYADSVKGRFTISRDDSKSMVYLQMDNLKSEDTAMYYCTADYSRGDRWGQGVMVTVSS
VL: NIQMTQSPPVLSASVGDRVTLSCKASQNINKNLDWYQQKHGEAPKLLMYYANNLQTGIPSRFSGSGSGTDYTLTISSLQPEDVATYYCYQYKNGWTFGGGTKLELKR

Tests used:
[1] = target: B1; assay: competitive SPR (Biacore 3000): 50 nM 5811 mFab pre-incubated with 1 µM peptide, injected over immobilised human alpha synuclein monomer and fibrils
Method: Recombinant human alpha synuclein monomer and pre-formed alpha synuclein fibrils were immobilized on a CM5 chip using a Biacore 3000 instrument (GE Healthcare). Following activation of the carboxymethyl dextran surface by injection of 100 μl of a fresh 1:1 (v/v) mixture of 50 mM N-hydroxysuccimide and 200 mM 1-ethyl-3-(3-dimethylaminopropyl)-carbodiimide at a flow rate of 10 μl/min HBS-EP (GE Healthcare) as running buffer, coupling was achieved by injecting 100 μl of monomer and fibrils, at 5 μM in 10 mM acetate pH 5.0, over separate flow cells. A reference flow cell was activated in the same manner and then all flow cell surfaces were deactivated with a 50 μl pulse of 1 M ethanolamine.HCl pH 8.5.
Peptide solutions were prepared in running buffer at 100 μM and a peptide blank control prepared as a 1 in 100 dilution of DMSO in running buffer. […] Sensograms were recorded for each sample by injecting 30 μl of the mixture at 10 μl/min and recording a report point 5 seconds before the end of the injection. The chip was regenerated at the end of each cycle by two 10 μl injections of 40 mM HCl and one injection of 5 mM NaOH. Control cycles were alternated with peptide cycles.

[2] = target: T1, biotinylated peptide corresponding to residues 117 to 126 of human alpha synuclein (PVDPDNEAYE) (human, also: biotinylated, position not given here); assay: streptavidin-capture ELISA on biotinylated peptide PVDPDNEAYE, HRP secondary antibody, TMB, OD 630 nm
T1 construct: Captured on streptavidin plates for the ELISA
T1 peptide: PVDPDNEAYE

[3] = target: T2, recombinant human alpha synuclein fibrils (human, UniProt P37840 1-140); assay: SPR (Biacore T200), antigen amine-coupled to CM5 chip, Fab as analyte, 1:1 model
Method: (§1) Interaction kinetics were determined by using surface plasmon resonance technology on a Biacore T200 instrument. Three different ligands including recombinant full-length human alpha synuclein monomer, purified recombinant human alpha synuclein fibrils, and purified recombinant mouse alpha synuclein fibrils, prepared as described herein, were each immobilized on three different flow cells of a CM5 chip surface using amine-coupling chemistry. The three ligands were prepared in 10 mM NaAc, pH 3.5, and immobilized onto separate flow cell surfaces to reach an immobilization level of about 30 response units (RU) for alpha synuclein monomer, about 40 RU for human alpha synuclein fibrils, and about 300 RU for mouse alpha synuclein fibrils respectively, at a flow rate of 10 μl/min. The buffer HBS-EP+(GE healthcare Bio-Sciences AB) was used as running buffer for both ligand immobilization and kinetics assay. […] The surface was regenerated by one injection of 50 mM HCl for 90 s at 10 μl/min, and another injection of 50 mM HCl for 60 s at 10 μl/min. The data were analyzed using the Biacore T200 evaluation software (version 3.0) using the bivalent analyte model with assumed no bulk contribution (RI=0) and global Rmax for mIgG1 format, and 1:1 model with flexible bulk contribution (local RI) and global Rmax.

[4] = target: T3, recombinant full-length human alpha synuclein monomer (human, UniProt P37840 1-140); assay: as above
Method: as §1

[5] = target: T4, recombinant mouse alpha synuclein fibrils (mouse, UniProt O55042 1-140); assay: as above
Method: as §1

[6] = target: T2, recombinant human alpha synuclein …; assay: kinetics on alpha synuclein fibrils; method not named in Example 4 (ka1/kd1 as in the Biacore bivalent analyte model)
[7] = target: T2, recombinant human alpha synuclein …; assay: SPR (Biacore T200), antigen amine-coupled to CM5 chip, IgG as analyte, bivalent analyte model (KD1)
Method: as §1

[8] = target: T3, recombinant full-length human alpha …; assay: as above
Method: as §1

[9] = target: T4, recombinant mouse alpha synuclein …; assay: as above
Method: as §1

[10] = target: T5, human beta synuclein (rPeptide) (human, UniProt Q16143 1-134); assay: Western blot
T5 construct: also called rPeptide beta synuclein; human betα-synuclein
T5 sequence (Q16143 whole entry): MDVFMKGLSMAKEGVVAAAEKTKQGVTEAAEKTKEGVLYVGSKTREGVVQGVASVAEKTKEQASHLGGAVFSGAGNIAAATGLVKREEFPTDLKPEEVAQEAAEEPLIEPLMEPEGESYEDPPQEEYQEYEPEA
Method: The binding of antibodies raised against human alpha synuclein to human beta synuclein were tested by Western blot using rPeptide beta synuclein. […] The membrane was blocked in PBS with 3% BSA and 0.1% Tween20. […] The blot was washed extensively in PBS with 0.1% Tween20, PBS and water. Chemi-luminescence was measured after addition of ECL Western blot substrate (Pierce).
The blot was washed after 1-hour incubation at room temperature with 0.1% Tween in PBS.

[11] = target: T2, recombinant human alpha synuclein …; assay: cell-based or functional assay
[12] = target: T2, recombinant human alpha synuclein …; assay: cell-based or functional assay; remark: listed apart in the source
[13] = target: T2, recombinant human alpha synuclein …; assay: kinetics on human fibril; method not named (same values as Table 5)

Binder: Ac-QEGILEDMPV-NH2 [peptide AS109-118]
binding result [1]: no binding (tested: 1 µM)

Binder: Ac-DPDNEAYEMP-NH2 [peptide AS119-128]
binding result [1]: binds

Binder: Ac-LEDMPVDPDN-NH2 [peptide AS113-122]
binding result [1]: binds

Binder: Ac-DNEAYEMPSE-NH2 [peptide AS121-130]
binding result [1]: no binding (tested: 1 µM)

Binder: B1
EC50 (read off the curve) [2]: ~0.4 µg/mL
Kd [3]: 0.6 nM
Kd [4]: 0.29 nM
Kd [5]: 42.9 nM

B4: Antibody 5811gL8gH4 IgG4P (antibody, V domains shown)
VH: EVQLVESGGGLVKPGGSLRLSCAASGFTFNNAAMYWVRQAPGKGLEWVARIRTKPNNYATSYADSVKGRFTISRDDSKNTLYLQMNSLKTEDTAVYYCTADYSRGDRWGQGTMVTVSS
VL: DIQMTQSPSSLSASVGDRVTITCKASQNINKNLDWYQQKPGKAPKLLIYYANNLQTGVPSRFSGSGSGTDFTLTISSLQPEDFATYYCYQYKNGWTFGQGTKVEIKR
IC50, aggregation assay on mouse primary neurons (pSer129 alpha synuclein signal) [11]: < 5 nM
IC50, cell-based aggregation assay (HEK cells expressing alpha synuclein, % pSer129+ cells) [11]: ≤ 5 nM
Kd [6]: 0.0159 nM
koff [6]: 5.17e-05 s⁻¹
kon [6]: 3.26e+06 M⁻¹ s⁻¹

B6: Antibody 5811gL14gH4 IgG4P (antibody, V domains shown)
VH: EVQLVESGGGLVKPGGSLRLSCAASGFTFNNAAMYWVRQAPGKGLEWVARIRTKPNNYATSYADSVKGRFTISRDDSKNTLYLQMNSLKTEDTAVYYCTADYSRGDRWGQGTMVTVSS
VL: DIQMTQSPSSLSASVGDRVTITCKASQNINKNLDWYQQKPGKAPKLLIYYANNLQTGVPSRFSGSGSGTDFTLTISSLQPEDFATYYCYQYKNAWTFGQGTKVEIKR
IC50, aggregation assay on mouse primary neurons (pSer129 alpha synuclein signal) [11]: < 5 nM
IC50, cell-based aggregation assay (HEK cells expressing alpha synuclein, % pSer129+ cells) [11]: ≤ 5 nM
Kd [6]: 0.0185 nM
koff [6]: 2.04e-05 s⁻¹
kon [6]: 1.1e+06 M⁻¹ s⁻¹

Binder: Ac-YEMPSEEGYQ-NH2 [peptide AS125-134]
binding result [1]: no binding (tested: 1 µM)

Binder: Ac-GILEDMPVDP-NH2 [peptide AS111-120]
binding result [1]: no binding (tested: 1 µM)

Continued, in another order:

binding result [1]: no binding (tested: 1 µM)
Binder: Ac-EGYQDYEPEA-OH (also called AS131-140) [131-140]

binding result [1]: no binding (tested: 1 µM)
Binder: Ac-EAYEMPSEEG-NH2 [peptide AS123-132]

Kd [6]: 0.0156 nM
B2: Chimeric rat-human 5811 antibody (antibody, V domains shown)
VH: EMQLVESGGGLVQPKESLKISCAASGFTFNNAAMYWVRQAPGKGLEWVARIRTKPNNYATSYADSVKGRFTISRDDSKSMVYLQMDNLKSEDTAMYYCTADYSRGDRWGQGVMVTVSS
VL: NIQMTQSPPVLSASVGDRVTLSCKASQNINKNLDWYQQKHGEAPKLLMYYANNLQTGIPSRFSGSGSGTDYTLTISSLQPEDVATYYCYQYKNGWTFGGGTKLELK
notes: It was prepared like the humanized antibodies, with the human kappa constant region (Km3) and human gamma-4 with S241P (IgG4P); also called parental rat-human antibody

Kd [7]: 0.03 nM
Kd [8]: 0.53 nM
Kd [9]: 119 nM
B3: rat-mouse chimeric recombinant antibody 5811 mIgG1 (antibody, V domains shown)
VH: EMQLVESGGGLVQPKESLKISCAASGFTFNNAAMYWVRQAPGKGLEWVARIRTKPNNYATSYADSVKGRFTISRDDSKSMVYLQMDNLKSEDTAMYYCTADYSRGDRWGQGVMVTVSS
VL: NIQMTQSPPVLSASVGDRVTLSCKASQNINKNLDWYQQKHGEAPKLLMYYANNLQTGIPSRFSGSGSGTDYTLTISSLQPEDVATYYCYQYKNGWTFGGGTKLELKR
binding result [10]: no binding (tested: 1 micro gram of synuclein per lane)

binding result [1]: no binding (tested: 1 µM)
Binder: Ac-SEEGYQDYEP-NH2 [129-138]

IC50, aggregation assay on mouse primary neurons (pSer129 alpha synuclein signal) [11]: < 5 nM
IC50, cell-based aggregation assay (HEK cells expressing alpha synuclein, % pSer129+ cells) [11]: ≤ 5 nM
Kd [6]: 0.015 nM
koff [6]: 4.1e-05 s⁻¹
kon [6]: 2.74e+06 M⁻¹ s⁻¹
IC50 (nM), cell-based aggregation assays [12]: < 5 nM
Kd [13]: 0.015 nM
koff [13]: 4.1e-05 s⁻¹
kon [13]: 2.74e+06 M⁻¹ s⁻¹
B5: Antibody 5811gL5gH4 IgG4P (antibody, V domains shown)
VH: EVQLVESGGGLVKPGGSLRLSCAASGFTFNNAAMYWVRQAPGKGLEWVARIRTKPNNYATSYADSVKGRFTISRDDSKNTLYLQMNSLKTEDTAVYYCTADYSRGDRWGQGTMVTVSS
VL: DIQMTQSPSSLSASVGDRVTITCKASQNINKNLDWYQQKPGKAPKLLIYYANNLQTGVPSRFSGSGSGTDYTLTISSLQPEDFATYYCYQYKNGWTFGQGTKVEIKR
notes: also called VR5811

binding result [1]: no binding (tested: 1 µM)
B7: peptide AS104-113 (peptide)
peptide: Ac-EEGAPQEGIL-NH2
notes: Synthetic peptide of human alpha synuclein

binding result [1]: binds
Binder: Ac-DMPVDPDNEA-NH2 [peptide AS115-124]

binding result [1]: no binding (tested: 1 µM)
Binder: Ac-MPSEEGYQDY-NH2 [peptide AS127-136]
